Data reported in IntAct's records for PubMed 19074269.

B1: Basic leucine zipper transcriptional factor ATF-like 2 (Homo sapiens), Q8N1L9-1 (parent)
chain: MHLCGGNGLLTQTDPKEQQRQLKKQKNRAAAQRSRQKHTDKADALHQQHESLEKDNLALRKEIQSLQAELAWWSRTLHVHERLCPMDCASCSAPGLLGCWDQAEGLLGPGPQGQHGCREQLELFQTPGSCYPAQPLSPGPQPHDSPSLLQCPLPSLSLGPAVVAEPPVQLSPSPLLFASHTGSSLQGSSSKLSALQPSLTAQTAPPQPLELEHPTRGKLGSSPDNPSSALGLARLQSREHKPALSAATWQGLVVDPSPHPLLAFPLLSSAQVHF

Variants of: B1
Details: with jun_human JUN

Row | effect of a mutation on the interaction | Variant
1 | disrupting interaction | MHLCGGNGLLTQTDPKEQQRQLKKQKNRAAAQRSRQKHTDKADALHQQHESLEKDNLAPRKEIQSLQAELAWWSRTLHVHERLCPMDCASCSAPGLLGCWDQAEGLLGPGPQGQHGCREQLELFQTPGSCYPAQPLSPGPQPHDSPSLLQCPLPSLSLGPAVVAEPPVQLSPSPLLFASHTGSSLQGSSSKLSALQPSLTAQTAPPQPLELEHPTRGKLGSSPDNPSSALGLARLQSREHKPALSAATWQGLVVDPSPHPLLAFPLLSSAQVHF [L59P]
